From patent CN117843802A (BEILAI PHARMACEUTICAL CO LTD, dated 2024)

Legend:
[1] = molecular target: T1, Human IL-17A蛋白 (Human, UniProt Q16552 24-155); test: cell-based or functional assay
T1 sequence (looked up): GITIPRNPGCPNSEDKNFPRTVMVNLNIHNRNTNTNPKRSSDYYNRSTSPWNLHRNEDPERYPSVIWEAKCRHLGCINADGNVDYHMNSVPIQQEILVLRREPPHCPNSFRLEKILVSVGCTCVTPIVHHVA

[2] = molecular target: T2, Human IL-17A重组蛋白 (IL-17A-His) (Human, UniProt Q16552 24-155, biotinylated (Biotin-IL-17A-His) in the ELISA of paragraph 259; site not stated); test: ELISA: antibody coated at 2 ug/mL, Biotin-IL-17A-His titrated from 10 ug/mL (5-fold, 7 points), HRP-Streptavidin
T2 construct: Recombinant antigen expressed in E. coli BL21 from pET28a, purified on a nickel column; also called IL-17A抗原蛋白; IL-17抗原
T2 sequence: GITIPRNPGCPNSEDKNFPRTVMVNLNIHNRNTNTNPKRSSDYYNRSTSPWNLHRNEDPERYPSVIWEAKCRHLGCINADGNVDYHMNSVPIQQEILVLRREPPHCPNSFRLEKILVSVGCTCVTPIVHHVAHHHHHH

B1: Ixekizumab (antibody, human IgG4 S228P, kappa, V domains shown)
VH: QVQLVQSGAEVKKPGSSVKVSCKASGYSFTDYHIHWVRQAPGQGLEWMGVINPMYGTTDYNQRFKGRVTITADESTSTAYMELSSLRSEDTAVYYCARYDYFTGTGVYWGQGTLVTVSS
VL: DIVMTQTPLSLSVTPGQPASISCRSSRSLVHSRGNTYLHWYLQKPGQSPQLLIYKVSNRFIGVPDRFSGSGSGTDFTLKISRVEAEDVGVYYCSQSTHLPFTFGQGTKLEIKR
notes: Made in-house: variable regions cloned into pcDNA3.4-hIgG4 and pcDNA3.4-hIgKc, expressed in 293F cells, purified on Protein A; also called 阳性对照抗体; 阳性抗体
For B1, the “IC50, luciferase activity of 293F-IL-17RA-IL-17Rc-ACT1-NFκB-Luc reporter cells” value [1] was 1.36 µg/mL and the EC50 [2] was 10.1 µg/mL.
